Data reported in patent publication US20230250135A1.

Key:
Settings in all cases: remark: other sources report otherwise
[1] = biological target: UFV161721 (influenza A virus A/Hong Kong/1/68 (H3N2)); assay: Binding-AlphaLISA, Expi293F supernatant, normalized to UFV161333
[2] = biological target: UFV161715 (influenza A virus A/Hong Kong/1/68 (H3N2)); assay: as above
[3] = biological target: UFV161333 (influenza A virus A/Hong Kong/1/68 (H3N2)); assay: Binding-AlphaLISA, Expi293F supernatant, normalized to UFV161686
[4] = biological target: UFV161453 (influenza A virus A/Hong Kong/1/68 (H3N2))

B1: CR9114 (antibody, V domains shown)
VH: QVQLVQSGAEVKKPGSSVKVSCKSSGGTSNNYAISWVRQAPGQGLDWMGGISPIFGSTAYAQKFQGRVTISADIFSNTAYMELNSLTSEDTAVYFCARHGNYYYYSGMDVWGQGTTVTVSS
VL: SYVLTQPPAVSGTPGQRVTISCSGSDSNIGRRSVNWYQQFPGTAPKLLIYSNDQRPSVVPDRFSGSKSGTSASLAISGLQSEDEAEYYCAAWDDSLKGAVFGGGTQLTVL
binding relative to reference UFV161333 [1]: 145%
binding relative to reference UFV161333 [2]: 145%
fold increase in binding relative to reference UFV161686 [3]: 5 fold
binding relative to reference UFV161454 [4]: 61%
